B1: I-309: chemokine of the C-C family (protein, UniProt P22362 24-96, looked up)
C-C motif chemokine 1: KSMQVPFSRCCFSFAEQEIPLRAILCYRNTSSICSNEGLIFKLKRGKEACALDTVGWVQRHRKMLRHCPSKRK
B2: MIP-1b: chemokine of the C-C family (protein, UniProt P13236 24-92, looked up)
C-C motif chemokine 4: APMGSDPPTACCFSYTARKLPRNFVVDYYETSSLCSQPAVVFQTKRSKQVCADPSESWVQEYVYDLELN
B3: NAP-2: C-X-C chemokine (protein, UniProt P02775 59-128, looked up)
Neutrophil-activating peptide …: AELRCMCIKTTSGIHPKNIQSLEVIGKGTHCNQVEVIATLKDGRKICLDPDAPRIKKIVQKKLAGDESAD
modifications: Neutrophil-activating peptide 2
notes: C-X-C chemokine

Target: human IL-8 receptor types A or B
Assay: not given
Details: values previously reported (Holmes et al. 1991; Murphy and Tiffany 1991); cited from earlier work

Question: For “IL-8: member of the family of C-X-C chemokines; used as radioligand and unlabelled competitor”, which Kd is on record?
Answer: 0.8 to 1 nM

Target: T1, KSHV GPCR (Human herpesvirus 8 type P, UniProt Q98146)
T1 construct: expressed in transfected cells; host or cells: COS-1
T1 sequence (Q98146 1-342): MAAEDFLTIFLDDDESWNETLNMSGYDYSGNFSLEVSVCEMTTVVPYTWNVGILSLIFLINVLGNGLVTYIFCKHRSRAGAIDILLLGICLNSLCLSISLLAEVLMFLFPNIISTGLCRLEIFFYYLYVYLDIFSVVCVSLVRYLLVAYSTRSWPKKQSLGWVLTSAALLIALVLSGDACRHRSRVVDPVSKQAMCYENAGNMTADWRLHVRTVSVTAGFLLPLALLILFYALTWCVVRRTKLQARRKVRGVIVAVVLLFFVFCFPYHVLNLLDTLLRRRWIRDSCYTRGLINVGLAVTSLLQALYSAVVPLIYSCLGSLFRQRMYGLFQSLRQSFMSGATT
Assay: Competition binding of 125I-IL-8 by unlabelled chemokines to COS-1 cells transfected with pcKSHV GPCR
Details: competition analysis with 125I-IL-8, FIGS. 2 and 3
Procedure: Data represent the mean of triplicate determinations in a representative of two experiments;
Competition binding. The coding sequence of KSHV GPCR was cleaved from its original subcloning plasmid (Cesarman et al. 1996) by digestion with NcoI and inserted into the EcoRV site of the eukaryotic expression vector pcDNA3.1(+) (Invitrogen), producing the pcKSHV GPCR used for expression in mammalian cells. COS-1 cells (American Type Culture Collection) were grown in 100 mm petri dishes in Dulbecco's modified Eagle's medium (DMEM; GIBCO-BRL) with 5% Nu-Serum (Collaborative Research) in a humidified incubator in an atmosphere of 5% CO2 at 37° C. […] Approximately 100,000 cells per well (in 12-well plates) were washed with Hank's balanced salt solution (HBSS) containing 25 mM HEPES, pH 7.4 (GIBCO-BRL). […] The binding buffer contained bovine serum albumin (BSA; 1 mg/ml), bacitracin (1 mg/ml), and phenyl methyl sulphonyl fluoride (PMSF; 1 mM). Assays were terminated by aspirating the binding buffer, washing three times with chilled HBSS and solubilizing the cells with 0.4 N NaOH. An aliquot of this solution was counted in a gamma counter and the data expressed as percent of maximum bound. Binding and dose-response curves were analyzed using Prism software (GraphPad, Inc.).

Question: Which “binding to KSHV GPCR (in words)” value does the source give for MCP-1: chemokine of the C-C family here?
Answer: do not

Question: Which “binding to KSHV GPCR (in words)” value does the source give for MGSA: C-X-C chemokine here?
Answer: also bind to KSHV GPCR

Question: For PF-4: C-X-C chemokine, which “binding to KSHV GPCR (in words)” value is on record?
Answer: also bind to KSHV GPCR

Question: Which “binding to KSHV GPCR (in words)” value does the source give for RANTES: chemokine of the C-C family here?
Answer: bind to KSHV GPCR

Question: For B1, which “binding to KSHV GPCR (in words)” value is on record?
Answer: bind to KSHV GPCR

Question: For B2, which “binding to KSHV GPCR (in words)” value is on record?
Answer: do not

Question: Which “binding to KSHV GPCR (in words)” value does the source give for B3 here?
Answer: also bind to KSHV GPCR

Same assay, conditions: competition of human recombinant 125I-IL-8, COS-1 cells transfected with pcKSHV GPCR, 4° C., 2 hrs; read-out: Kd or Ki

Question: With MGSA: C-X-C chemokine as the molecule, how does the Ki read?
Answer: 270 nM

Question: With PF-4: C-X-C chemokine as the molecule, how does the Ki read?
Answer: 150 nM

Question: For RANTES: chemokine of the C-C family, which Ki is on record?
Answer: 520 nM

Question: For B1, which Ki is on record?
Answer: 110 nM

Question: Which Ki does the source give for B3 here?
Answer: 23 nM

Test system: human IL-8 receptors (type A or B)
Assay: Inositol phosphate accumulation in COS-1 cells transfected with human IL-8 receptor plasmids with or without Ga16/Ga15
Format: cell-based
Details: COS cells expressing IL-8 receptors without cotransfected Ga16 or Ga15, absence or presence of IL-8

Question: For “IL-8: member of the family of C-X-C chemokines; used as radioligand and unlabelled competitor”, which “accumulation of IPs” value is on record?
Answer: little measurable accumulation
